Biological target: SF3B1 residues 147–462 (ULM-containing N-terminal region) (human) (UniProt O75533)
Assay: ITC

SF3B1 residues 147–462 (ULM-containing N-terminal region) (human), sequence (O75533 147-462): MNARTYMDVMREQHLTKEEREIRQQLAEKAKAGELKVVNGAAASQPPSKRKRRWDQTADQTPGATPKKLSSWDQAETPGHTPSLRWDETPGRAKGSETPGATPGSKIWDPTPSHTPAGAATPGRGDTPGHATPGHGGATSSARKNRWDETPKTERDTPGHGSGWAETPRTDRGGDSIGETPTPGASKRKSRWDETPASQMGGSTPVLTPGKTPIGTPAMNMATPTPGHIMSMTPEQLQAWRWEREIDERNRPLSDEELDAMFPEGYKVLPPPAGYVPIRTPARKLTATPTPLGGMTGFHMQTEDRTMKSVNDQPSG

stoichiometry N: 2
Substance: U2AF2^12UL (nearly full-length U2AF2, residues 141–471) (domain or fragment)

Reference: paper PMC9364107
